{"source": "paper PMC11806408", "about": "“Prodomain processing controls BMP‐10 bioactivity and targeting to fibrillin‐1 in latent conformation” (The FASEB Journal, 2025)", "binders": {"B1": {"name": "BMPRII ectodomain, human IgG1‐Fc fusion (R&D Systems #811‐BR‐100/CF) (Fc fusion, UniProt Q13873 27-150, looked up)", "chain": "SQNQERLCAFKDPYQQDLGIGESRISHENGTILCSKGSTCYGLWEKSKGDINLVKQGCWSHIGDPQECHYEECVVTTTPPSIQNGTYRFCCCSTDLCNVNFTENFPPPDTTPLSPPHSFNRDET", "notes": "Bone morphogenetic protein receptor type II (BMPRII), ectodomain; 'human' in the sentence may qualify the IgG1 Fc only; also called BMP type II receptor; source: bought: R&D Systems (#811‐BR‐100/CF)"}, "B2": {"name": "processed BMP‐10 CPLX (tag‐free, HEK293) (complex, human)", "chain 1": "SPIMNLEQSPLEEDMSLFGDVFSEQDGVDFNTLLQSMKDEFLKTLNLSDIPTQDSAKVDPPEYMLELYNKFATDRTSMPSANIIRSFKNEDLFSQPVSFNGLRKYPLLFNVSIPHHEEVIMAELRLYTLVQRDRMIYDGVDRKITIFEVLESKGDNEGERNMLVLVSGEIYGTNSEWETFDVTDAIRRWQKSGSSTHQLEVHIESKHDEAEDASSGRLEIDTSAQNKHNPLLIVFSDDQSSDKERKEELNEMISHEQLPELDNLGLDSFSSGPGEEALLQMRSNIIYDSTARIRR", "chain 2": "NAKGNYCKRTPLYIDFKEIGWDSWIIAPPGYEAYECRGVCNYPLAEHLTPTKHAIIQALVHLKNSQKASKACCVPTKLEPISILYLDKGVVTYKFKYEGMAVSECGCR", "modifications": "N‐glycosylation", "notes": "Bone morphogenetic protein 10, human, prodomain (PD) up to the endogenous PPC cleavage site RIRR; calculated molecular weight without glycans 34.6 kDa; secreted through the BM40 signal peptide of the vector; Bone morphogenetic protein 10, human, growth factor (GF) released by PPC cleavage after RIRR; calculated molecular weight of the monomer 12.2 kDa; The SPR methods say only 'processed BMP‐10 …"}, "B3": {"name": "BMP‐10 PD (HEK293, from the processed BMP‐10 CPLX) (domain or fragment, human)", "chain": "B2 chain 1", "modifications": "N‐glycosylation", "notes": "Bone morphogenetic protein 10, human, prodomain (PD) up to the endogenous PPC cleavage site RIRR; band at 45 kDa, calculated molecular weight without glycans 34.6 kDa; The methods of SEC/MALS and AUC say only 'two fractions of BMP‐10'; also called separated BMP‐10 PD"}, "B4": {"name": "BMP‐10 GF (R&D Systems #2926‐BP‐025/CF) (ligand, human, UniProt O95393 317-424, looked up)", "chain": "B2 chain 2", "notes": "Bone morphogenetic protein 10, human, growth factor (GF) moiety that follows the PPC cleavage site RIRR; calculated molecular weight of the monomer 12.2 kDa, dimer 24.4 kDa; Disulfide-linked GF dimer; also called BMP‐10 growth factor; BMP‐10 GF dimer; source: bought: R&D Systems (#2926‐BP‐025/CF); called commercially available HEK293‐derived"}}, "key": {"[1]": {"target": "B2", "experiment": "SPR; receptor ectodomains immobilised at 500 or 800 RUs on a CM5 chip by amine coupling; analytes 0 to 80 nM, 1:2 serial dilutions, 1× HBS‐EP; 1:1 model with mass transfer; apparent KD = kd/ka; three independent experiments", "settings": "both partners purified"}, "[2]": {"target": "T1, ENG ectodomain (R&D Systems #1097‐EN‐025/CF) (human, UniProt P17813 26-586)", "T1 construct": "Endoglin (ENG), ectodomain; The methods read 'the human IgG1‐Fc‐fusion ectodomains of BMPRII, ALK‐1 as well as ENG'; also called endoglin; co‐receptor ENG; source: bought: R&D Systems (#1097‐EN‐025/CF); not shown: Fc (human IgG1)", "T1 sequence (looked up)": "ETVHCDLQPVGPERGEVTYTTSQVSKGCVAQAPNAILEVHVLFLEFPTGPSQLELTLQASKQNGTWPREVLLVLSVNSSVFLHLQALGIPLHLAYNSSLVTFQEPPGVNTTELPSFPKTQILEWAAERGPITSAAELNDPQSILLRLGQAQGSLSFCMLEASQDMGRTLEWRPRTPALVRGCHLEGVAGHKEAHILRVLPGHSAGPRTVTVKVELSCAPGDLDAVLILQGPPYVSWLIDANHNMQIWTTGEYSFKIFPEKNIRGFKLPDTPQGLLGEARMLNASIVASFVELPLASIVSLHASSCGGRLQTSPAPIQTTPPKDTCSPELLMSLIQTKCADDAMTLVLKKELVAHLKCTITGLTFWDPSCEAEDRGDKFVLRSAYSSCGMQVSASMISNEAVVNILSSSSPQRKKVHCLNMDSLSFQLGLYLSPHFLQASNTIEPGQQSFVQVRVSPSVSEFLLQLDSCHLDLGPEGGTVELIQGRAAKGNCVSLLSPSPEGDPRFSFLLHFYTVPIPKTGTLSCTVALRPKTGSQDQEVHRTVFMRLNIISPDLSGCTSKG", "experiment": "SPR; receptor ectodomains immobilised at 500 or 800 RUs on a CM5 chip by amine coupling; analytes 0 to 80 nM, 1:2 serial dilutions, 1× HBS‐EP; 1:1 model with mass transfer; apparent KD = kd/ka; three independent experiments", "settings": "both partners purified"}, "[3]": {"target": "the molecule itself", "experiment": "AUC; sedimentation velocity of elution fractions after SEC/MALS (S200 Increase, 1× PBS), 54 000 rpm, 280 nm, c(s) fit; PD dimer"}, "BMP‐10 PD (E. coli)": {"target": "T2, BMP‐10 PD (E. coli) (human, UniProt O95393 22-316)", "T2 construct": "also called BMP‐10 prodomain; E. coli‐derived BMP‐10 PD; source: E. coli BL21‐CodonPlus, purified (Ni‐NTA)", "T2 sequence (looked up)": "B2 chain 1", "experiment": "SPR; PDs of BMP‐9, BMP‐10 and N‐10/C‐9 fusion PD immobilised at 450 RUs on a CM5 chip by amine coupling; BMP‐10 GF 0 to 80 nM, 1:2 serial dilutions, 1× HBS‐EP; 1:1 model with mass transfer; apparent KD = kd/ka", "settings": "both partners purified"}, "BMP‐9 PD (E. coli)": {"target": "T3, BMP‐9 PD (E. coli) (human, UniProt Q9UK05 23-319)", "T3 construct": "also called BMP‐9 prodomain; source: E. coli BL21‐CodonPlus, purified (Ni‐NTA)", "T3 sequence (looked up)": "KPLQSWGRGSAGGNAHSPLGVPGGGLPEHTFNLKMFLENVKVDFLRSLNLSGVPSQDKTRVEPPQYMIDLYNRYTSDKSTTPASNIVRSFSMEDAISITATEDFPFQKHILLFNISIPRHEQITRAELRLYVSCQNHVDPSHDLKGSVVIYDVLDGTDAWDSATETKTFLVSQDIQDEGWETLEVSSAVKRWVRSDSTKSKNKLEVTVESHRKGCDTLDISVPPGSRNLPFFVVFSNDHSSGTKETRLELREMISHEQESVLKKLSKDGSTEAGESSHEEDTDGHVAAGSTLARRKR", "experiment": "SPR; PDs of BMP‐9, BMP‐10 and N‐10/C‐9 fusion PD immobilised at 450 RUs on a CM5 chip by amine coupling; BMP‐10 GF 0 to 80 nM, 1:2 serial dilutions, 1× HBS‐EP; 1:1 model with mass transfer; apparent KD = kd/ka", "settings": "both partners purified"}, "[4]": {"target": "B1", "experiment": "SPR; receptor ectodomains immobilised at 500 or 800 RUs on a CM5 chip by amine coupling; analytes 0 to 80 nM, 1:2 serial dilutions, 1× HBS‐EP; 1:1 model with mass transfer; apparent KD = kd/ka; three independent experiments", "settings": "both partners purified"}, "[5]": {"target": "T1, ENG ectodomain (R&D Systems …)", "experiment": "SPR; receptor ectodomains immobilised at 500 or 800 RUs on a CM5 chip by amine coupling; analytes 0 to 80 nM, 1:2 serial dilutions, 1× HBS‐EP; 1:1 model with mass transfer; apparent KD = kd/ka; three independent experiments", "settings": "both partners purified", "remark": "listed apart in the source"}}}
{"binder": "B1", "values": [{"measurement": "Kd", "setting": "[1]", "value": "0.8 ± 0.1", "unit": "nM"}, {"measurement": "koff", "setting": "[1]", "value": 0.00079, "unit": "s⁻¹"}, {"measurement": "kon", "setting": "[1]", "value": 940000, "unit": "M⁻¹ s⁻¹"}]}
{"binder": "B2", "values": [{"measurement": "binding result", "setting": "[2]", "value": "binds"}]}
{"binder": "B3", "values": [{"measurement": "stoichiometry N", "setting": "[3]", "value": 2}]}
{"binder": "B4", "values": [{"measurement": "Kd", "setting": "BMP‐10 PD (E. coli)", "value": "5.2 ± 0.7", "unit": "nM"}, {"measurement": "koff", "setting": "BMP‐10 PD (E. coli)", "value": 0.0024, "unit": "s⁻¹"}, {"measurement": "kon", "setting": "BMP‐10 PD (E. coli)", "value": 500000, "unit": "M⁻¹ s⁻¹"}, {"measurement": "Kd", "setting": "BMP‐9 PD (E. coli)", "value": "10.4 ± 2.5", "unit": "nM"}, {"measurement": "koff", "setting": "BMP‐9 PD (E. coli)", "value": 0.0024, "unit": "s⁻¹"}, {"measurement": "kon", "setting": "BMP‐9 PD (E. coli)", "value": 230000, "unit": "M⁻¹ s⁻¹"}, {"measurement": "Kd", "setting": "[4]", "value": "2.6 ± 0.6", "unit": "nM"}, {"measurement": "koff", "setting": "[4]", "value": 0.0017, "unit": "s⁻¹"}, {"measurement": "kon", "setting": "[4]", "value": 690000, "unit": "M⁻¹ s⁻¹"}, {"measurement": "Kd", "setting": "[5]", "value": "16.3 ± 2.9", "unit": "nM"}, {"measurement": "koff", "setting": "[5]", "value": 0.008, "unit": "s⁻¹"}, {"measurement": "kon", "setting": "[5]", "value": 490000, "unit": "M⁻¹ s⁻¹"}]}
